Data: publication PMC4906247

B1: hDAPK2 CD + ARD wild type (pETM14 construct for SEC, SAXS, CaM pull-down and FA) [human] / itself (parent)
chain: NMEPFKQQKVEDFYDIGEELGSGQFAIVKKCREKSTGLEYAAKFIKKRQSRASRRGVSREEIEREVSILRQVLHHNVITLHDVYENRTDVVLILELVSGGELFDFLAQKESLSEEEATSFIKQILDGVNYLHTKKIAHFDLKPENIMLLDKNIPIPHIKLIDFGLAHEIEDGVEFKNIFGTPEFVAPEIVNYEPLGLEADMWSIGVITYILLSGASPFLGDTKQETLANITAVSYDFDEEFFSQTSELAKDFIRKLLVKETRKRLTIQEALRHPWITPVDNQQAMVRRESVVNLENFRKQYVRRRWKLSFSIVSLCNHLTR

Variants of: B1
Experiment: analytical size-exclusion chromatography (SEC)
Conditions: with itself

Variant | screen value [kDa]
chain 1 R48E R51E R54E R55E | 4410
